Test system: peptide library, one residue held at a place counted from the S/T acceptor
Assay: relative phosphorylation of the sub-library (ratio to the mean residue at this position); higher = residue favoured
Settings: human
Summary of the method: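 In 384-well plates, purified recombinant kinases (human or orthologue constructs) were incubated for 90 min under kinase-specific conditions with 50 μM biotinylated degenerate peptide sub-libraries and 50 μM ATP spiked with γ-32P-ATP. Each sub-library fixed a single residue at one position around a central Ser/Thr. Relative sub-library phosphorylation, measured by phosphorimaging and densitometry of streptavidin membrane spots, is given as a ratio to the mean residue at that position.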

Chain of SIK1, construct: aa1-303 (P57059 1-303, looked up): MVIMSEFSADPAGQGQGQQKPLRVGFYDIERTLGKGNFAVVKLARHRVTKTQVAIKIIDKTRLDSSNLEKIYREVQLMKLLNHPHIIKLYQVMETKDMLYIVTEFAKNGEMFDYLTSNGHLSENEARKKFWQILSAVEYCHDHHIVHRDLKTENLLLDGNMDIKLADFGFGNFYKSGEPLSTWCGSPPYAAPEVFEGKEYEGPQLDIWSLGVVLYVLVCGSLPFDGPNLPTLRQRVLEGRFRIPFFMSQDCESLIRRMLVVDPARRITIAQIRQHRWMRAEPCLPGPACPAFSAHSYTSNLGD
Chain of PRKD1, construct: Full length (Q15139 whole entry, looked up): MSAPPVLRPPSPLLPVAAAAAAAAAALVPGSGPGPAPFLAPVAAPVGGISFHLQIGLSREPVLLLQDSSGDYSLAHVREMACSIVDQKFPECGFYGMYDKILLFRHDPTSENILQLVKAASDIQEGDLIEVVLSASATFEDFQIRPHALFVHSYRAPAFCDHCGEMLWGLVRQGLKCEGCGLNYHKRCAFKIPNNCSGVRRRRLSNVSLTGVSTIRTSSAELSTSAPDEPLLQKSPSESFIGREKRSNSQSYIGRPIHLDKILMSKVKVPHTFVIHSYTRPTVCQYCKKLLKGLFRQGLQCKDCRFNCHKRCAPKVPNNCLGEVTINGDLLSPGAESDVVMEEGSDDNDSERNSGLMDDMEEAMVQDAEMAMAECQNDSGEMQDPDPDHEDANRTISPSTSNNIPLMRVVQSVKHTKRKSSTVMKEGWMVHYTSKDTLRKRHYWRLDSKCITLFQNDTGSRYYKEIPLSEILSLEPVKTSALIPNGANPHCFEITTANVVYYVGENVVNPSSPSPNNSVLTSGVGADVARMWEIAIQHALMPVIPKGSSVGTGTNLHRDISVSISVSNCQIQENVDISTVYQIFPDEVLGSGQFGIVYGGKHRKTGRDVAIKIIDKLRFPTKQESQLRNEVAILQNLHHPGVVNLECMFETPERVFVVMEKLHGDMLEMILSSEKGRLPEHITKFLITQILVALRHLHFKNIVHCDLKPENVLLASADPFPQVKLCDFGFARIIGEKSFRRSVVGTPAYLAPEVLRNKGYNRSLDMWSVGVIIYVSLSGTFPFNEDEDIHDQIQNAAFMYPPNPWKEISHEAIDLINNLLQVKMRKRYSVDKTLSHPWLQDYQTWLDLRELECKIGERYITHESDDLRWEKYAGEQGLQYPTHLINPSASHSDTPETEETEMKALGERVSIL
Chain of PRKAA2, construct: Full length (P54646 whole entry, looked up): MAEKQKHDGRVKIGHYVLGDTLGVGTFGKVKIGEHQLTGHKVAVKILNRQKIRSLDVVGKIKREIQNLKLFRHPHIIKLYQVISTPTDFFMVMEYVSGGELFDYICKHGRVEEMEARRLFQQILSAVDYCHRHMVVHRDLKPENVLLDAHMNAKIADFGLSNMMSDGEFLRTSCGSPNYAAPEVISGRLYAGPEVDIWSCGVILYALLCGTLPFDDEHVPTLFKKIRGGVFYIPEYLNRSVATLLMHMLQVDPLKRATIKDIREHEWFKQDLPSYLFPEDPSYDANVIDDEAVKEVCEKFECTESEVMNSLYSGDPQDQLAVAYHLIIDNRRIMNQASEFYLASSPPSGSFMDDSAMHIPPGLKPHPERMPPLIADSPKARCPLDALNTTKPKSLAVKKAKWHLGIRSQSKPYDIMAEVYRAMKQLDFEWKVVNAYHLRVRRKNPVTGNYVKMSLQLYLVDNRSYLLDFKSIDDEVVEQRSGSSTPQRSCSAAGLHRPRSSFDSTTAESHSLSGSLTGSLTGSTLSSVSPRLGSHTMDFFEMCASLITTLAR
Chain of PNCK, construct: Full length (Q6P2M8 whole entry, looked up): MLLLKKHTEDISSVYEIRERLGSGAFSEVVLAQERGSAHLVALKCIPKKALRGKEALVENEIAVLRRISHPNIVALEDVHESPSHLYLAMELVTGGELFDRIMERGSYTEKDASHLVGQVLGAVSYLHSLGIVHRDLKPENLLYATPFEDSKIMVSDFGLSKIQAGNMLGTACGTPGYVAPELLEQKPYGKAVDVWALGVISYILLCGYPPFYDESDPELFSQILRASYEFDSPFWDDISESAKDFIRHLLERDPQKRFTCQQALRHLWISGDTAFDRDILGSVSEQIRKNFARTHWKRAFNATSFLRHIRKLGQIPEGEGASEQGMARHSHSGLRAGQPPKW

PNCK, construct: Full length (from UniProt Q6P2M8)
relative phosphorylation
Settings | at +1 | at +2 | at +3 | at +4 | at -1 | at -2 | at -3 | at -4 | at -5
A fixed | 0.986 | 1.09 | 1 | 0.953 | 0.983 | 1.03 | 0.881 | 0.95 | 0.856
D fixed | 0.844 | 1.03 | 1.2 | 1.01 | 1.07 | 0.666 | 0.626 | 0.713 | 0.718
E fixed | 0.919 | 1.03 | 1.07 | 0.985 | 0.92 | 0.678 | 0.644 | 0.803 | 0.726
F fixed | 1.37 | 0.986 | 1 | 1.07 | 0.904 | 0.687 | 0.659 | 0.921 | 1.12
G fixed | 0.879 | 0.871 | 1.01 | 1.01 | 1.01 | 0.814 | 0.678 | 0.863 | 0.833
H fixed | 0.96 | 1.28 | 1.02 | 0.93 | 1.06 | 0.826 | 0.799 | 0.921 | 0.839
I fixed | 0.869 | 1.01 | 0.851 | 1.13 | 0.785 | 0.795 | 0.741 | 1.06 | 1.12
K fixed | 1.13 | 0.889 | 0.962 | 0.927 | 1.32 | 1.88 | 1.84 | 1.7 | 1.13
L fixed | 0.866 | 0.98 | 0.913 | 1.2 | 0.826 | 0.764 | 0.694 | 1.1 | 1.56
M fixed | 0.938 | 0.893 | 0.876 | 0.982 | 0.869 | 0.855 | 0.668 | 0.986 | 1.07
N fixed | 1.06 | 0.966 | 1.26 | 0.96 | 1.41 | 0.934 | 0.732 | 0.892 | 0.822
P fixed | 0.777 | 0.914 | 0.92 | 1.07 | 1.07 | 0.641 | 0.649 | 0.787 | 0.994
Q fixed | 1.19 | 0.947 | 0.976 | 1 | 0.983 | 1.46 | 0.826 | 1.01 | 0.958
R fixed | 1.39 | 1.02 | 0.958 | 0.875 | 1.32 | 2.64 | 4.54 | 1.49 | 1.44
V fixed | 0.873 | 1.02 | 0.885 | 0.991 | 0.795 | 0.8 | 0.679 | 1.05 | 0.956
W fixed | 0.909 | 0.916 | 1.02 | 0.989 | 0.81 | 0.829 | 0.7 | 0.835 | 0.873
Y fixed | 1.02 | 1.14 | 1.08 | 0.91 | 0.86 | 0.706 | 0.644 | 0.91 | 0.973
pThr fixed | 1.16 | 1.29 | 1.1 | 1.13 | 0.832 | 0.701 | 0.723 | 0.902 | 0.774
pTyr fixed | 1.12 | 2.97 | 1.42 | 1.04 | 1.02 | 0.701 | 0.684 | 0.799 | 0.897

PRKAA2, construct: Full length (from UniProt P54646)
relative phosphorylation
Settings | at +1 | at +2 | at +3 | at +4 | at -1 | at -2 | at -3 | at -4 | at -5
A fixed | 1.05 | 1.53 | 0.803 | 0.597 | 1.14 | 1.34 | 0.699 | 1.19 | 0.889
D fixed | 0.54 | 0.575 | 1.53 | 0.614 | 0.593 | 0.42 | 0.258 | 0.419 | 0.336
E fixed | 0.708 | 0.492 | 0.805 | 0.454 | 0.495 | 0.427 | 0.368 | 0.546 | 0.308
F fixed | 1.88 | 0.855 | 1.01 | 1.27 | 0.734 | 0.655 | 0.4 | 0.67 | 1.3
G fixed | 0.711 | 0.724 | 0.933 | 0.637 | 1.38 | 0.933 | 0.739 | 1.13 | 0.815
H fixed | 1.15 | 1.48 | 2.39 | 0.747 | 1.12 | 1.18 | 1.26 | 1.26 | 0.8
I fixed | 0.565 | 1.19 | 0.531 | 2.12 | 0.339 | 0.925 | 0.335 | 0.577 | 1.42
K fixed | 1.01 | 0.689 | 1.01 | 0.777 | 1.9 | 1.62 | 2.75 | 2.22 | 1.27
L fixed | 0.814 | 1.29 | 0.677 | 2.7 | 0.714 | 0.548 | 0.398 | 0.692 | 1.64
M fixed | 1.33 | 0.833 | 0.693 | 2.04 | 0.978 | 0.575 | 0.473 | 0.928 | 1.51
N fixed | 0.942 | 1.18 | 1.69 | 0.864 | 1.16 | 1.93 | 0.821 | 0.801 | 0.684
P fixed | 0.269 | 1.37 | 0.41 | 0.789 | 1.51 | 0.826 | 0.991 | 1.31 | 0.964
Q fixed | 1.41 | 1.03 | 0.978 | 0.806 | 1.22 | 0.981 | 0.851 | 0.874 | 0.825
R fixed | 1.23 | 0.652 | 1.06 | 0.618 | 1.58 | 1.84 | 5.14 | 2.31 | 1.89
V fixed | 0.779 | 1.34 | 0.506 | 0.876 | 0.49 | 1.47 | 0.365 | 0.7 | 0.769
W fixed | 1.35 | 0.966 | 1.16 | 0.617 | 0.73 | 0.661 | 0.559 | 0.666 | 0.723
Y fixed | 1.27 | 0.806 | 0.808 | 0.479 | 0.903 | 0.676 | 0.596 | 0.713 | 0.854
pThr fixed | 0.69 | 0.503 | 0.35 | 0.709 | 0.324 | 0.504 | 0.49 | 0.644 | 0.588
pTyr fixed | 0.649 | 0.452 | 0.57 | 0.529 | 0.607 | 0.533 | 0.471 | 0.475 | 0.696

PRKD1, construct: Full length (from UniProt Q15139)
relative phosphorylation
Settings | at +1 | at +2 | at +3 | at +4 | at -1 | at -2 | at -3 | at -4 | at -5
A fixed | 0.979 | 1.13 | 0.873 | 1.1 | 0.938 | 1.9 | 1.38 | 1.82 | 1.63
D fixed | 0.653 | 1.21 | 1.14 | 1.37 | 0.869 | 0.32 | 0.243 | 0.514 | 0.411
E fixed | 0.53 | 0.784 | 0.839 | 1.05 | 0.564 | 0.578 | 0.347 | 0.925 | 0.362
F fixed | 0.964 | 0.86 | 0.811 | 0.885 | 0.467 | 0.609 | 0.47 | 0.792 | 0.668
G fixed | 1.19 | 1.52 | 1.75 | 1.39 | 0.878 | 0.682 | 0.919 | 1.86 | 0.708
H fixed | 1.05 | 1.04 | 0.95 | 1.23 | 0.823 | 0.726 | 0.802 | 0.897 | 0.506
I fixed | 0.989 | 0.505 | 0.669 | 0.601 | 0.383 | 0.552 | 0.284 | 0.694 | 1.03
K fixed | 0.619 | 0.518 | 0.582 | 0.651 | 1.79 | 1.78 | 1.46 | 1.09 | 0.414
L fixed | 1.02 | 0.66 | 0.887 | 0.674 | 0.863 | 0.735 | 0.346 | 0.791 | 3.41
M fixed | 1.22 | 0.946 | 0.886 | 0.924 | 0.945 | 1.79 | 0.653 | 1.25 | 0.713
N fixed | 2.19 | 1.9 | 1.2 | 1.31 | 2.05 | 0.912 | 0.829 | 0.831 | 0.537
P fixed | 0.369 | 1.81 | 2.37 | 1.46 | 2.43 | 0.593 | 1.49 | 0.656 | 1.34
Q fixed | 1.47 | 1.1 | 1.13 | 1.25 | 1.27 | 2.26 | 0.865 | 1.26 | 0.953
R fixed | 0.537 | 0.486 | 0.364 | 0.436 | 0.703 | 1.46 | 5.06 | 1.12 | 1.29
V fixed | 1.04 | 0.688 | 0.735 | 0.624 | 0.613 | 1.01 | 0.411 | 0.844 | 1.61
W fixed | 0.966 | 0.971 | 0.889 | 0.963 | 0.535 | 0.455 | 0.677 | 0.787 | 0.538
Y fixed | 1.22 | 0.86 | 0.926 | 1.07 | 0.873 | 0.644 | 0.777 | 0.857 | 0.878
pThr fixed | 0.596 | 0.624 | 0.842 | 0.939 | 0.207 | 0.27 | 0.295 | 0.467 | 0.28
pTyr fixed | 0.774 | 0.836 | 0.826 | 1.12 | 0.69 | 0.357 | 0.306 | 0.533 | 0.624

SIK1, construct: aa1-303 (from UniProt P57059)
relative phosphorylation
Settings | at +1 | at +2 | at +3 | at +4 | at -1 | at -2 | at -3 | at -4 | at -5
A fixed | 0.56 | 1.1 | 0.618 | 0.641 | 0.972 | 1.89 | 0.589 | 0.941 | 1.01
D fixed | 0.593 | 0.666 | 1.84 | 0.416 | 0.724 | 0.326 | 0.282 | 0.786 | 0.672
E fixed | 0.718 | 0.524 | 0.523 | 0.334 | 0.46 | 0.304 | 0.309 | 0.966 | 0.746
F fixed | 0.996 | 0.694 | 1.08 | 0.86 | 0.432 | 1.13 | 0.47 | 0.768 | 1.22
G fixed | 0.493 | 0.841 | 0.595 | 0.697 | 2.75 | 0.851 | 0.382 | 1.01 | 0.737
H fixed | 0.797 | 0.662 | 1.18 | 0.767 | 0.966 | 1.44 | 0.877 | 1.24 | 0.829
I fixed | 1.18 | 1.06 | 0.907 | 2.22 | 0.289 | 0.451 | 0.24 | 0.457 | 0.721
K fixed | 0.839 | 0.992 | 0.716 | 0.722 | 1.76 | 1.23 | 2.52 | 1.61 | 1.31
L fixed | 1.11 | 0.626 | 0.992 | 4.05 | 0.722 | 0.35 | 0.343 | 0.535 | 1.7
M fixed | 1.87 | 0.998 | 0.928 | 1.48 | 0.82 | 0.556 | 0.508 | 0.93 | 1.09
N fixed | 1.2 | 1.09 | 2.97 | 0.688 | 1.43 | 0.809 | 0.587 | 1.01 | 0.894
P fixed | 0.315 | 1.08 | 0.439 | 0.676 | 1.24 | 0.347 | 0.505 | 1.09 | 0.831
Q fixed | 2.08 | 0.958 | 0.965 | 0.557 | 1.4 | 0.784 | 0.675 | 1.01 | 0.958
R fixed | 1.16 | 1.33 | 0.659 | 0.518 | 1.22 | 1.35 | 6.57 | 1.86 | 1.65
V fixed | 1.23 | 1.1 | 0.599 | 1.12 | 0.565 | 0.868 | 0.329 | 0.512 | 0.744
W fixed | 0.868 | 2.13 | 0.916 | 0.695 | 0.516 | 2.72 | 1.25 | 1.24 | 1.05
Y fixed | 0.982 | 1.14 | 1.08 | 0.564 | 0.732 | 1.59 | 0.569 | 1.03 | 0.832
pThr fixed | 0.764 | 0.579 | 0.35 | 0.475 | 0.285 | 0.388 | 0.433 | 0.706 | 0.562
pTyr fixed | 0.75 | 0.358 | 0.419 | 0.526 | 0.812 | 0.469 | 0.515 | 0.699 | 0.731

Reference: the supplement of paper PMC9876800
